± gives the half width of the 95% confidence interval.
Legend:
[1] = folding stability dG unfold (combined trypsin and chymotrypsin); higher = more stable
Procedure, shortened: (§1)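 Sequencing followed digestion of designed mini-proteins with trypsin and chymotrypsin, each at 11 concentrations in threefold dilutions together with a no-protease condition. The mini-proteins were under 80 residues, had no cysteine, sat in a PA-tagged cDNA display construct, and were kept only if AlphaFold2 dimer inter-PAE was above 15. From the counts, Bayesian fitting gave K50, and unfolding free energy was derived against a sequence-predicted unfolded-state K50 and a shared folded-state K50, per protease or combined.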

[2] = folding stability dG unfold from trypsin proteolysis; higher = more stable
Procedure, shortened: as §1

[3] = folding stability dG unfold from chymotrypsin proteolysis; higher = more stable
Procedure, shortened: as §1

| Sequence | folding stability dG unfold [1] | folding stability dG unfold [2] | folding stability dG unfold [3] |
| --- | --- | --- | --- |
| SAGGSAASVVEKTLSPDGTLFVTIKVDPEKKSVPFSITTPDGTPVTVTLPPNTTKTVRVPLGEAALSAGGSA [r15_336_JUSTAS] | -0.39 ± 0.15 kcal/mol | -0.678 ± 0.28 kcal/mol | -0.553 ± 0.27 kcal/mol |
| SAGMVIKVKVKNKDGEELELVIEIPEEELPEELTEEELKELAKKLAEELAKEGKVEVVEVEIVEPEELSAGG [r19_27_TrROS_Hall] | 2.03 ± 0.25 kcal/mol | 2.39 ± 0.26 kcal/mol | 1.8 ± 0.13 kcal/mol |
| SAGGSAGGIHPDVKVKLVKIVSVEEGEGEVVAKALVELPNGERVVVSSEVLKELLEENPDVDVSSAGGSAGG [r6_77_TrMRF] | 0.819 ± 0.18 kcal/mol | 0.301 ± 0.056 kcal/mol | 1.02 ± 0.067 kcal/mol |
| SAGGSAGGSATTTTAPDGSPVTVYPETGVARVYDPATGLWTRLTTRPDGVVEETPLPPGAPLESAGGSAGGS [r12_997_JUSTAS] | 0.307 ± 0.068 kcal/mol | -0.687 ± 0.23 kcal/mol | 0.6 ± 0.079 kcal/mol |
| SAGGSAGGSKKKYTVEELLKKLKPGDIALVKINGKWREVSVEELKKLPPGAEVEVEVFKLKPPSAGGSAGGS [r12_501_TrROS_Hall] | 3.34 ± 0.16 kcal/mol | 2.84 ± 0.11 kcal/mol | 3.51 ± 0.072 kcal/mol |
| SGMIKVSVEEKELKDGTKLYTITVEHPDPEVAKETAEKIVKEKFPKNYKVETKLTESGKVIAPVIVPKKKSA [r9_646_JUSTAS] | 0.9 ± 0.2 kcal/mol | 0.379 ± 0.09 kcal/mol | 1.1 ± 0.15 kcal/mol |
| MRITLELEDGTRVEIEFERKEDGTLVVRIKVTRKDGKTVEIEVVVRSKDGKITPEELERALREALEELLKKS [r1_124_TrROS_Hall] | 4.21 ± 0.38 kcal/mol | 4.19 ± 0.24 kcal/mol | 4.06 ± 0.33 kcal/mol |
| SAGGSAGGSAPKVEPHPVTFTFENAVVTVTRYRVPDEDGNPLYFTSVSVFFLDKDGKPGFVFPSAGGSAGGS [r20_13_TrMRF] | 4.35 ± 0.18 kcal/mol | 3.28 ± 0.076 kcal/mol | 4.82 ± 0.069 kcal/mol |
| SAGGSAGGSAGKIEVEGDVEVTVFPPYGLATVTTPNGERYVLLVETRPDGSKRVLLFSAGSAGGSAGGSAGG [r11_331_TrMRF] | 2.26 ± 0.045 kcal/mol | 2.02 ± 0.039 kcal/mol | 2.37 ± 0.026 kcal/mol |
| SAGGMEKIEIEVENEDGEKVKIEIYFDEETGFIVVKIEGENPELIDALKKKLGLEIVEKREDGYLVFKSAGG [r13_937_TrROS_Hall] | 3.48 ± 0.23 kcal/mol | 3.01 ± 0.24 kcal/mol | 3.72 ± 0.13 kcal/mol |
| SAGGSAGGSAGGDESYRKLLEELPLPVTEIVVETVPLPETDEPITVVTPKNPDGKEVTLGSAGGSAGGSAGG [r7_337_JUSTAS] | -0.284 ± 0.14 kcal/mol | -0.0426 ± 0.037 kcal/mol | -0.557 ± 0.084 kcal/mol |
| SAGGSAGGSAPIKITEHTYNPGDGMVWATAEAEDPNGWKIKLTIWFFPDGNIQIEITEIVPSAGGSAGGSAG [r3_7_TrROS] | 3.83 ± 0.28 kcal/mol | 2.45 ± 0.18 kcal/mol | 4.39 ± 0.14 kcal/mol |
| SAGGSAGGSAGGSMKYITITETTEEEVLVLYYDPETGEPVREEKVLRTVTKTRTLPPDLKSAGGSAGGSAGG [r7_573_JUSTAS] | 0.189 ± 0.14 kcal/mol | -0.236 ± 0.23 kcal/mol | 0.434 ± 0.19 kcal/mol |
| SAGGSTIENPNGWRIEIDIIPIKVVYRKDPNGKPKEPVAPPVWIIHIKIEFPDKNGEKKEATFMLFSAGGSA [r2_218_TrROS] | 4.06 ± 0.13 kcal/mol | 2.62 ± 0.069 kcal/mol | 4.61 ± 0.056 kcal/mol |
| SAGGMKKEKVKITIVVPVEDAEKLREALEKLGFKVVEEKENEDGLLTLTVEVDGKKIEIKIVKKEELSAGGS [r16_170_TrROS_Hall] | 1.05 ± 0.28 kcal/mol | 1.13 ± 0.088 kcal/mol | 0.81 ± 0.095 kcal/mol |
| SAGGSAMTIYIKNKDGYIIKIEITKIEEIGPNYIKIKMKMEIINKNGEKKEIELELIFKVKNPEELSAGGSA [r15_1035_TrROS_Hall] | 3.79 ± 0.28 kcal/mol | 2.54 ± 0.33 kcal/mol | 4 ± 0.099 kcal/mol |
| SAGGDPGWVRVTAEIELDGKNLKIEWWYMPNGNYYYNIEFPNGKEIEIMIPMEPGDVEEFAEYIAKKLSAGG [r13_296_TrROS] | 2.66 ± 0.11 kcal/mol | 2.32 ± 0.069 kcal/mol | 2.838 ± 0.028 kcal/mol |
| SAGMLTLRVVLPKEEAEARARALAEELRRRLGLPPGAKIEVKVVEYDEETGEVVVEVTIEVELPPGVEPSAG [r5_537_TrROS_Hall] | 3.98 ± 0.095 kcal/mol | 4.27 ± 0.14 kcal/mol | 3.64 ± 0.051 kcal/mol |
| SAGGSAGGSAGGMTLRIRVRNKDGKVLEIEVEVDEDKTPEEVARELAKKLNVEKVEIFPSAGGSAGGSAGGS [r10_400_TrROS_Hall] | 2.28 ± 0.13 kcal/mol | 2.2 ± 0.07 kcal/mol | 2.32 ± 0.038 kcal/mol |
| SAGGDEIAKEIANHAREQGYKVEVKVERDEDGMVKIDVEMSMPNGRRVTFSITINPDGIEIQSIEVTPSAGG [r13_203_TrROS] | 3.97 ± 0.15 kcal/mol | 2.65 ± 0.12 kcal/mol | 4.41 ± 0.067 kcal/mol |
| SAGGMTLDQLKHALRHKKMQIHEPNPNGWYVTFQNPDGKPPTFPVKSDDELRDILRDAPGFEVEVQPVSAGG [r13_600_TrROS] | 0.608 ± 0.2 kcal/mol | -0.0886 ± 0.17 kcal/mol | 0.84 ± 0.16 kcal/mol |

| Sequence | folding stability dG unfold [1] | folding stability dG unfold [2] | folding stability dG unfold [3] |
| --- | --- | --- | --- |
| SAGGSSMPLEVTEVKKIGDKIVITLRVPPSVGPLSLGLTIELKSKPVTITSTFDPSTTTATIEVGLSAGGSA [r2_261_JUSTAS] | 3.25 ± 0.17 kcal/mol | 2.88 ± 0.1 kcal/mol | 3.43 ± 0.18 kcal/mol |
| SAGGSAGGETITVKVKIKNEDGEEIEVEAEVTKNKDGSYTITIKNKETGETKVVPNATIEEVEPSAGGSAGG [r6_254_TrROS_Hall] | 1.93 ± 0.18 kcal/mol | 1.59 ± 0.12 kcal/mol | 2.19 ± 0.18 kcal/mol |
| SAGGSKWIPVSIWFPKGMTPEKVEEIARELVEAGYRIENIEVEREPDPNGREWYRVDITFRPPGDLSAGGSA [r2_442_TrROS] | 2.83 ± 0.18 kcal/mol | 2.71 ± 0.085 kcal/mol | 3.01 ± 0.089 kcal/mol |
| SAGMMKVKIELTIVVETKEEAEKLAEELKKALEELGIKEVKVTVEYDKETKKVTVTVEIEIELEPELLSAGG [r19_92_TrROS_Hall] | 2.17 ± 0.23 kcal/mol | 2.18 ± 0.21 kcal/mol | 2.17 ± 0.1 kcal/mol |
| SAGGSAGGSSVLEVDPETGITVAVQDPSTGRYYVRNPEGEIREFDSPEEIREAFGRPVNFKTAPSAGGSAGG [r6_753_JUSTAS] | 0.753 ± 0.057 kcal/mol | 0.559 ± 0.018 kcal/mol | 0.787 ± 0.082 kcal/mol |
| SSISPSSTLTFSKPFPDDDINAVKEFAEKLAKEIGPDVSVVKIEKDPNNPNKVTITISVPGTSITVNFSNSA [r9_1079_JUSTAS] | 1.01 ± 0.14 kcal/mol | 1.09 ± 0.054 kcal/mol | 0.664 ± 0.26 kcal/mol |
| SAGGSAGGSAGGSVIEVKDPNGKKYIIIKTPDPNVYPVTVIPPDGTTTVTPVSDYSKLLSSAGGSAGGSAGG [r7_769_JUSTAS] | -0.527 ± 0.42 kcal/mol | -0.893 ± 0.4 kcal/mol | -0.464 ± 0.56 kcal/mol |
| SAGGMSKEELAKKLAKELAEKLGIKEIKEIKIEKKKDKVKITIVFKENKKIIEIELKDGKIVKIKEKSAGGS [r16_171_TrROS_Hall] | 3.26 ± 0.16 kcal/mol | 3.36 ± 0.15 kcal/mol | 3.22 ± 0.16 kcal/mol |
| SAGLKEIAKKLGLSEEKIKIKEIKKKKKVVYDKKTKKKYEKEEIVIKIEIVDPKTKKKYEIEIPLEEIKSAG [r5_517_TrROS_Hall] | 2.55 ± 0.22 kcal/mol | 2.28 ± 0.18 kcal/mol | 2.63 ± 0.18 kcal/mol |
| SAGKEKEVKEVTIKIKIYVTNKNGEKKEITIEVKAKNKEDLLEALKKLGLSVEELKEKFPNIKIVEIEPSAG [r5_430_TrROS_Hall] | 4.01 ± 0.55 kcal/mol | 2.3 ± 0.22 kcal/mol | 4.05 ± 0.22 kcal/mol |
| SAGGSAGGGFVTIEVEITEVVGKTKDEEGKPHPGDPNDPSGYVKLPPFPVKVPSSPEEYAALLSSAGGSAGG [r6_219_JUSTAS] | 0.301 ± 0.16 kcal/mol | 0.551 ± 0.076 kcal/mol | -0.31 ± 0.62 kcal/mol |
| SAGGSAGGSKPVLKITVTNEKGEKQTISLDELQAETGLSAEEIAARLAALLPPGAKITIEPVPSAGGSAGGS [r12_399_TrROS_Hall] | 1.98 ± 0.048 kcal/mol | 1.81 ± 0.024 kcal/mol | 2.11 ± 0.023 kcal/mol |
| SAGGSAGGSAGKIRDPNGNPFQIKDVEVEPPGPGDPYISIEYPDNGEEFTLPPEDAEDLFSAGGSAGGSAGG [r17_517_TrROS] | 1.64 ± 0.27 kcal/mol | 0.95 ± 0.038 kcal/mol | 2.13 ± 0.052 kcal/mol |
| SAGGSAGGMKATFHPGPGRFPLGDKEYEVDLIYVTVTLPNGVPRVFVLTPDEVEELLPDLELEGSAGGSAGG [r6_561_TrMRF] | 0.794 ± 0.098 kcal/mol | 0.338 ± 0.07 kcal/mol | 1.04 ± 0.071 kcal/mol |
| SAGGSAGGSAGSTTTTITDPANGEAYEVTSDPNGGATITNPNSSQVYYKNADTITSVGASSAGGSAGGSAGG [r17_476_JUSTAS] | -0.0736 ± 0.19 kcal/mol | -0.263 ± 0.087 kcal/mol | -0.198 ± 0.49 kcal/mol |
| SAGGSAGGSAGGDEVLVFETETVELEVEVRTLNEDGEETTEKEKVTLTVTRVVRLPPGLLSAGGSAGGSAGG [r7_926_TrROS_Hall] | 0.959 ± 0.44 kcal/mol | 0.827 ± 0.083 kcal/mol | 1.15 ± 0.24 kcal/mol |
| SAGGSAKTKVIEIEIDLSPEEIEELAKKLKEEGKVEEVKVEYDEKTGKVKVTVVVRDKNGEWKKLSSAGGSA [r15_177_TrROS_Hall] | 0.556 ± 0.15 kcal/mol | 0.854 ± 0.066 kcal/mol | -0.0755 ± 0.48 kcal/mol |
| SPVVVTTSPGPDGGARVTIYFPKTGKPIEFDITDPDLVEESTSDPNTRVDIPEEVLRSLAPDLFTGFTTESA [r9_390_TrMRF] | 0.362 ± 0.065 kcal/mol | 0.497 ± 0.046 kcal/mol | 0.241 ± 0.1 kcal/mol |
| SAGGSAGGMKKYKMTITFKTPDGTPVKEKTIYFNSEEEAKKAAEEIKKKELEPDTPVTVSKEPDSAGGSAGG [r6_286_JUSTAS] | 0.898 ± 0.069 kcal/mol | 0.425 ± 0.05 kcal/mol | 1.13 ± 0.071 kcal/mol |
| SAGGVVEVEVPDLSLEEALERVREEYPDVPEFTLTLPSGERVEFRVEGDRVEVVRREPLGPRPPELESAGGS [r8_225_JUSTAS] | 1.54 ± 0.066 kcal/mol | 1.63 ± 0.1 kcal/mol | 1.51 ± 0.029 kcal/mol |

From the supplement of paper PMC12764529
